Assay results reported in IntAct's records for PubMed 16513117.

B1: Protein phosphatase Slingshot homolog 1 (Homo sapiens), Q8WYL5 (parent)
chain: MALVTLQRSPTPSAASSSASNSELEAGSEEDRKLNLSLSESFFMVKGAALFLQQGSSPQGQRSLQHPHKHAGDLPQHLQVMINLLRCEDRIKLAVRLESAWADRVRYMVVVYSSGRQDTEENILLGVDFSSKESKSCTIGMVLRLWSDTKIHLDGDGGFSVSTAGRMHIFKPVSVQAMWSALQVLHKACEVARRHNYFPGGVALIWATYYESCISSEQSCINEWNAMQDLESTRPDSPALFVDKPTEGERTERLIKAKLRSIMMSQDLENVTSKEIRNELEKQMNCNLKELKEFIDNEMLLILGQMDKPSLIFDHLYLGSEWNASNLEELQGSGVDYILNVTREIDNFFPGLFAYHNIRVYDEETTDLLAHWNEAYHFINKAKRNHSKCLVHCKMGVSRSASTVIAYAMKEFGWPLEKAYNYVKQKRSITRPNAGFMRQLSEYEGILDASKQRHNKLWRQQTDSSLQQPVDDPAGPGDFLPETPDGTPESQLPFLDDAAQPGLGPPLPCCFRRLSDPLLPSPEDETGSLVHLEDPEREALLEEAAPPAEVHRPARQPQQGSGLCEKDVKKKLEFGSPKGRSGSLLQVEETEREEGLGAGRWGQLPTQLDQNLLNSENLNNNSKRSCPNGMEDDAIFGILNKVKPSYKSCADCMYPTASGAPEASRERCEDPNAPAICTQPAFLPHITSSPVAHLASRSRVPEKPASGPTEPPPFLPPAGSRRADTSGPGAGAALEPPASLLEPSRETPKVLPKSLLLKNSHCDKNPPSTEVVIKEESSPKKDMKPAKDLRLLFSNESEKPTTNSYLMQHQESIIQLQKAGLVRKHTKELERLKSVPADPAPPSRDGPASRLEASIPEESQDPAALHELGPLVMPSQAGSDEKSEAAPASLEGGSLKSPPPFFYRLDHTSSFSKDFLKTICYTPTSSSMSSNLTRSSSSDSIHSVRGKPGLVKQRTQEIETRLRLAGLTVSSPLKRSHSLAKLGSLTFSTEDLSSEADPSTVADSQDTTLSESSFLHEPQGTPRDPAATSKPSGKPAPENLKSPSWMSKS

Variants of: B1
Conditions: with actb_rabit ACTB

| effect of a mutation on the interaction | Variant |
| --- | --- |
| disrupting interaction | W458A |
